What all share (type): cell-based
Experiment [1] has as its target T1, mouse GIP receptor (mGIPr) (Mus musculus, UniProt Q0P543).
T1 construct: expressed in transfected cells; host or cells: HEK293s or CHO cells
T1 sequence (Q0P543 19-460): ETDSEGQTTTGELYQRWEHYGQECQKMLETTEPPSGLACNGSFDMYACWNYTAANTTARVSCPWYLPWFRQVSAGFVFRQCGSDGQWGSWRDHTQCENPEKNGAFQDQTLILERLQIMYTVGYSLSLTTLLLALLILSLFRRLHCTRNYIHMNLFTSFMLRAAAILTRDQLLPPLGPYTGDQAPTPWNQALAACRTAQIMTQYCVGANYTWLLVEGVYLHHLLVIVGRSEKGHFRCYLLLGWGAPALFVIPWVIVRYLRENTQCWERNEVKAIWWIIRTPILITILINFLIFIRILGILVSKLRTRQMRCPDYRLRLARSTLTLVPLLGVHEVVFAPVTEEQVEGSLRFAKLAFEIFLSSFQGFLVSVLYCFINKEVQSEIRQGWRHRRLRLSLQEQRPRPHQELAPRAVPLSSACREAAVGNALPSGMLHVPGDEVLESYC
The experiment is described as follows: BSA-cAMP assay, cells expressing mouse GIP receptor. The gist of the method:
(§1)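 EC50 is the midpoint of an unconstrained 4-parameter logistic fit to HTRF cAMP data, expressed as percent of maximal native agonist response, from two separate occasions. Rodent (mouse, rat) GLP-1R- or GIPR-expressing cells were incubated with compound 30 min at room temperature in 0.1% BSA medium, in duplicate.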
Background: Cyclic AMP is a second messenger, typically raised through Gs and lowered through Gi signalling.

The target in experiment [2] is T2, human GLP-1 receptor (hGLP-1r) (Homo sapiens, UniProt P43220).
T2 construct: expressed in transfected cells
T2 sequence (P43220 24-463): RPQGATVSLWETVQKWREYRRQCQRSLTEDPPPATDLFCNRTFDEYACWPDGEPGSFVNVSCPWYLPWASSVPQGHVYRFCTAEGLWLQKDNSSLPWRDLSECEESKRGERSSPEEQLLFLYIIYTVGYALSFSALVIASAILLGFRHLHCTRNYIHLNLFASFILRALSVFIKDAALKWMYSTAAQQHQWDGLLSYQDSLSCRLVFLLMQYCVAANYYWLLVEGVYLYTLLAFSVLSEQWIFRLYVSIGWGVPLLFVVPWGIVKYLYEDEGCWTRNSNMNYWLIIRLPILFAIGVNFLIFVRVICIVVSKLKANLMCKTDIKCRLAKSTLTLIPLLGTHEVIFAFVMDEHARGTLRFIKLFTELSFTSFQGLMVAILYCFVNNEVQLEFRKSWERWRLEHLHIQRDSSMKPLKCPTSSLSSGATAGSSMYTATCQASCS
Briefly: BSA-cAMP assay, cells expressing human GLP-1 receptor. Summed up: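 EC50 came from an unconstrained 4-parameter logistic fit of HTRF cAMP data expressed as percent of maximal native agonist activation, tested on two occasions. Thawed receptor-expressing cells (hGLP-1r, hGIPr at 0.5×10^5 cells/ml) treated 30 min at room temperature in 0.1% BSA-containing medium; two distinct hGIPr lines.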

For another experiment, the target named is T3, rat GIP receptor (rGIPr) (Rattus norvegicus, UniProt P43219).
T3 construct: expressed in transfected cells; host or cells: HEK293s or CHO cells
T3 sequence (P43219 19-455): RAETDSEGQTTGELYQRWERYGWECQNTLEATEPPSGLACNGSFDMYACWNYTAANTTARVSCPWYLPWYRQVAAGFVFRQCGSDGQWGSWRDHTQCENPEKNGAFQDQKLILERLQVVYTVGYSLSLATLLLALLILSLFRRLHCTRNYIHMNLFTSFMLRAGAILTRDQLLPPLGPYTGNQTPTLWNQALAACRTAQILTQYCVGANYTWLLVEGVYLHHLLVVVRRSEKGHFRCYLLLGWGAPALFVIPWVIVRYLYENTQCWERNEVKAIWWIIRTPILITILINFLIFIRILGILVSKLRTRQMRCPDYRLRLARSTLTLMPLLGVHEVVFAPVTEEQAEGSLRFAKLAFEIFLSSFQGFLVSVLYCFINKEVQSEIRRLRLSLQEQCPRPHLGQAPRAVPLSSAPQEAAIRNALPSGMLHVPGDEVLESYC
The experiment is described as follows: BSA-cAMP assay, cells expressing rat GIP receptor. Summed up:
as §1

In experiment [3] the target is T4, rat GLP-1 receptor (rGLP-1r) (Rattus norvegicus, UniProt P32301).
T4 construct: expressed in transfected cells; host or cells: HEK293s or CHO cells
T4 sequence (P32301 22-463): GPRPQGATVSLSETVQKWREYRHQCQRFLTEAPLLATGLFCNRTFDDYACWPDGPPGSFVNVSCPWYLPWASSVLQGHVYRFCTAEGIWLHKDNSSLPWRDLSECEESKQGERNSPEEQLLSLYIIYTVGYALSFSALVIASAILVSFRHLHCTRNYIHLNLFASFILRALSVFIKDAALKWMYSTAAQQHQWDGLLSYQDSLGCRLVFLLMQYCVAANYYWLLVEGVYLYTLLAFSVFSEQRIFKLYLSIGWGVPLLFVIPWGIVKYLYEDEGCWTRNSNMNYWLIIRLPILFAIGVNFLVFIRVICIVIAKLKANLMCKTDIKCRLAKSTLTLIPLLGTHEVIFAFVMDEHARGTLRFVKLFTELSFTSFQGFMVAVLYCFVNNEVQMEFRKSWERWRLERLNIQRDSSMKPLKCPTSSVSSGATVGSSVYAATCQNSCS
Briefly: BSA-cAMP assay, cells expressing rat GLP-1 receptor. The gist of the method: as §1

In experiment [4] the target is T5, mouse GLP-1 receptor (mGLP-1r) (Mus musculus, UniProt O35659).
T5 construct: expressed in transfected cells; host or cells: HEK293s or CHO cells
T5 sequence (O35659 22-463): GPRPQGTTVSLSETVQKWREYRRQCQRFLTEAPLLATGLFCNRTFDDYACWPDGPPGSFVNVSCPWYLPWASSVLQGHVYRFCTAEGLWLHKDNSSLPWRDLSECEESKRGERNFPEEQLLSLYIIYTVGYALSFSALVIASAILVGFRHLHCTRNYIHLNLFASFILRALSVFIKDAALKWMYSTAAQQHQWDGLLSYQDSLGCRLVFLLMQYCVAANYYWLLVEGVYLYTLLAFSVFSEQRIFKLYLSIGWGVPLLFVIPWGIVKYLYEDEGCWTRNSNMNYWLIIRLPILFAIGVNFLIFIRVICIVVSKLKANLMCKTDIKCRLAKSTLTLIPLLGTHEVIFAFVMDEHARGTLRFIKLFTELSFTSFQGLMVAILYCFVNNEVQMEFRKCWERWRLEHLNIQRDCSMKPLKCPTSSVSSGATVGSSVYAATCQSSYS
The experiment is described as follows: BSA-cAMP assay, cells expressing mouse GLP-1 receptor. The gist of the method:
as §1

B1: IP088: Fc fusion, IgG1-TM, SEQ ID NO:105; agonist peptide YSEGTFTSDYSKLLEEEAVRLFIEWLVKGP (SEQ ID NO:15) (protein)
chain: YSEGTFTSDYSKLLEEEAVRLFIEWLVKGPAAAGGSGSTASSGSGSATGGGGAATHTCPPCPAPEF
modifications: also: Fc fusion, IgG1-TM
With B1, the “potency for GIPr, in words” value in experiment [1] (mouse receptor) is “relatively lower potency”; with rat GIP receptor (rGIPr) (rat receptor) it was “high potencies”. Also, the “potency for GLP-1r, in words” value in experiment [2] (human receptor), in experiment [3] (rat receptor) and in experiment [4] (mouse receptor) was “high potency” throughout.

B2: IP367 (protein)
chain: YSEGTFTSDYRILKERQAIDEFIAWLLKGGAAAGGSGSTASSGSGSATGGGGAATHTCPPC
What is called EC50 is the concentration giving half of the maximal effect. Turning to B2, the EC50 in experiment [1] (Batch 1, BSA-cAMP assay, read-out: mGIPr cAMP activity EC50) was 0.031 nM; in experiment [2] (Batch 1, BSA-cAMP assay, read-out: hGLP1r cAMP activity EC50), 4.4 nM; in the experiment with rat GIP receptor (rGIPr) (Batch 1, BSA-cAMP assay, read-out: rGIPr cAMP activity EC50), 0.0099 nM; in experiment [3] (Batch 1, BSA-cAMP assay, read-out: rGLP1r cAMP activity EC50) it was 8 nM; in experiment [4] (Batch 1, BSA-cAMP assay, read-out: mGLP1r cAMP activity EC50), 390 nM.

The values above are taken from patent publication US20160185837A1 (Medimmune Limited, priority 2013, published 2016).
